Experimental data: IntAct's records for PubMed 29892012

B1: Chorion-specific transcription factor GCMb (Homo sapiens), O75603 (parent)
chain: MPAAAVQEAVGVCSYGMQLSWDINDPQMPQELALFDQFREWPDGYVRFIYSSDEKKAQRHLSGWAMRNTNNHNGHILKKSCLGVVVCTQACTLPDGSRLQLRPAICDKARLKQQKKACPNCHSALELIPCRGHSGYPVTNFWRLDGNAIFFQAKGVHDHPRPESKSETEARRSAIKRQMASFYQPQKKRIRESEAEENQDSSGHFSNIPPLENPEDFDIVTETSFPIPGQPCPSFPKSDVYKATCDLATFQGDKMPPFQKYSSPRIYLPRPPCSYELANPGYTNSSPYPTLYKDSTSIPNDTDWVHLNTLQCNVNSYSSYERSFDFTNKQHGWKPALGKPSLVERTNHGQFQAMATRPYYNPELPCRYLTTPPPGAPALQTVITTTTKVSYQAYQPPAMKYSDSVREVKSLSSCNYAPEDTGMSVYPEPWGPPVTVTRAASPSGPPPMKIAGDCRAIRPTVAIPHEPVSSRTDEAETWDVCLSGLGSAVSYSDRVGPFFTYNNEDF
partner: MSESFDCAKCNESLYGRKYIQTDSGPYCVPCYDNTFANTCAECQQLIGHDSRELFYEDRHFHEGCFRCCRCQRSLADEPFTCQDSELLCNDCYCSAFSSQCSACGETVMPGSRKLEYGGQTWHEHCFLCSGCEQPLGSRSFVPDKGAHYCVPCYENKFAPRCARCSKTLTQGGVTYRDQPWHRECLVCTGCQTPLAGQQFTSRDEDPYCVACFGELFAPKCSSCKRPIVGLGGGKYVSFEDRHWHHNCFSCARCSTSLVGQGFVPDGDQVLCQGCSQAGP
B2: Small glutamine-rich tetratricopeptide repeat-containing protein beta (Homo sapiens), Q96EQ0 (parent)
chain: MSSIKHLVYAVIRFLREQSQMDTYTSDEQESLEVAIQCLETVFKISPEDTHLAVSQPLTEMFTSSFCKNDVLPLSNSVPEDVGKADQLKDEGNNHMKEENYAAAVDCYTQAIELDPNNAVYYCNRAAAQSKLGHYTDAIKDCEKAIAIDSKYSKAYGRMGLALTALNKFEEAVTSYQKALDLDPENDSYKSNLKIAEQKLREVSSPTGTGLSFDMASLINNPAFISMAASLMQNPQVQQLMSGMMTNAIGGPAAGVGGLTDLSSLIQAGQQFAQQIQQQNPELIEQLRNHIRSRSFSSSAEEHS
B3: Centrosomal protein POC5 (Homo sapiens), Q8NA72 (parent)
chain: MSSDEEKYSLPVVQNDSSRGSSVSSNLQEEYEELLHYAIVTPNIEPCASQSSHPKGELVPDVRISTIHDILHSQGNNSEVRETAIEVGKGCDFHISSHSKTDESSPVLSPRKPSHPVMDFFSSHLLADSSSPATNSSHTDAHEILVSDFLVSDENLQKMENVLDLWSSGLKTNIISELSKWRLNFIDWHRMEMRKEKEKHAAHLKQLCNQINELKELQKTFEISIGRKDEVISSLSHAIGKQKEKIELMRTFFHWRIGHVRARQDVYEGKLADQYYQRTLLKKVWKVWRSVVQKQWKDVVERACQARAEEVCIQISNDYEAKVAMLSGALENAKAEIQRMQHEKEHFEDSMKKAFMRGVCALNLEAMTIFQNRNDAGIDSTNNKKEEYGPGVQGKEHSAHLDPSAPPMPLPVTSPLLPSPPAAVGGASATAVPSAASMTSTRAASASSVHVPVSALGAGSAATAASEEMYVPRVVTSAQQKAGRTITARITGRCDFASKNRISSSLAIMGVSPPMSSVVVEKHHPVTVQTIPQATAAKYPRTIHPESSTSASRSLGTRSAHTQSLTSVHSIKVVD
partner: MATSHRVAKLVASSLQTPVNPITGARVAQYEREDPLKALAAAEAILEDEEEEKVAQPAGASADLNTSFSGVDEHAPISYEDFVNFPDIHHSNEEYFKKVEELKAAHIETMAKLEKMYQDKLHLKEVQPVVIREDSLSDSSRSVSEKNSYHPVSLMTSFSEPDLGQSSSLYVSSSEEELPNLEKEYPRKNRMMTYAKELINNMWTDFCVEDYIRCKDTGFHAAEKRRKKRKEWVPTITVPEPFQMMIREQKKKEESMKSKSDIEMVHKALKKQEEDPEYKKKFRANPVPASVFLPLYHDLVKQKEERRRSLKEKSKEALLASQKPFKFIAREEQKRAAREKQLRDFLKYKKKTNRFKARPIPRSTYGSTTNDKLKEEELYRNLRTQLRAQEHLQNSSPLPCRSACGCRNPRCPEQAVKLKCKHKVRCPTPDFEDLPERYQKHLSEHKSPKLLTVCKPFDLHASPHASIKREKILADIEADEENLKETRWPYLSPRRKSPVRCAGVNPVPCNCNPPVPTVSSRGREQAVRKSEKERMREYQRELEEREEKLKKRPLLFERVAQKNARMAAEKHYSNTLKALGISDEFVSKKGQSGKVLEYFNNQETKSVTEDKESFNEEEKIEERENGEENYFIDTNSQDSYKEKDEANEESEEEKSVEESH
B4: Chorion-specific transcription factor GCMb (Homo sapiens), O75603 (parent)
chain: B1 chain
B5: Chorion-specific transcription factor GCMb (Homo sapiens), O75603 (parent)
chain: B1 chain
partner: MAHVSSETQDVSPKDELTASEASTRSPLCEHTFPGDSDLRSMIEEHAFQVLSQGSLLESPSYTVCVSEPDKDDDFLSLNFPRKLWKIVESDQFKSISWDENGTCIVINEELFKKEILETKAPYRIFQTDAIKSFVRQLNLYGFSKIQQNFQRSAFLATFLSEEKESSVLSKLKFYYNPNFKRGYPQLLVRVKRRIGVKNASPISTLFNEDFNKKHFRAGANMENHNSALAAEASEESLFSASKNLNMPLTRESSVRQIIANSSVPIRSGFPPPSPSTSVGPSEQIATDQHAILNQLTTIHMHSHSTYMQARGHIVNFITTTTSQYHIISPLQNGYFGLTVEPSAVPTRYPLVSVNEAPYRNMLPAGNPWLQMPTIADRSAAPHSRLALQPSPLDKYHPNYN

Variants of: B1
Settings: with fhl3_human FHL3, Q13643

effect of a mutation on the interaction | Variant
with no effect | MPAAAVQEAVGVCSYGMQLSWDINDPQMPQELALFDQFREWPDGYVRFIYSSDEKKAQRHLSGWAMRNTNNHNGHILKKSCLGVVVCTQACTLPDGSRLQLRPAICDKARLKQQKKACPNCHSALELIPCRGHSGYPVTNFWRLDGNAIFFQAKGVHDHPRPESKSETEARRSAIKRQMASFYQPQKKRIRESEAEENQDSSGHFSNIPPLENPEDFDIVTETSFPIPGQPCPSFPKSDVYKATCDLATFQGDKMPPFQKYSSPRIYLPRPPCSYELANPGYTNSSPYPTLYKDSTSIPNDTDWVHLNTLQCNVNSYSSYERSFDFTNKQHGWKPALGKPSLVERTNHEQFQAMATRPYYNPELPCRYLTTPPPGAPALQTVITTTTKVSYQAYQPPAMKYSDSVREVKSLSSCNYAPEDTGMSVYPEPWGPPVTVTRAASPSGPPPMKIAGDCRAIRPTVAIPHEPVSSRTDEAETWDVCLSGLGSAVSYSDRVGPFFTYNNEDF [G349E]

Variants of: B2
Settings: with fbln4_human EFEMP2, O95967
fbln4_human EFEMP2, O95967, sequence (O95967 whole entry): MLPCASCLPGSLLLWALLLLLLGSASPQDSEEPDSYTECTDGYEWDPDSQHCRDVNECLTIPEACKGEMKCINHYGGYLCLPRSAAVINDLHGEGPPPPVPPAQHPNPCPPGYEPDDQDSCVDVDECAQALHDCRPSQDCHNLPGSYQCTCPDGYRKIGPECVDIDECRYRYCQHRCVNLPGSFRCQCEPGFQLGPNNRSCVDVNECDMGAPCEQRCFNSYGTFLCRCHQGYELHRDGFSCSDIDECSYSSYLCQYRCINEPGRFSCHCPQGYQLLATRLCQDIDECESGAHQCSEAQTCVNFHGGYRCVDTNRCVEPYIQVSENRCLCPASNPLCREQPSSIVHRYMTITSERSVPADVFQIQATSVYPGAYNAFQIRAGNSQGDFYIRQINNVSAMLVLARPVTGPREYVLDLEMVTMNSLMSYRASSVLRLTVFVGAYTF

effect of a mutation on the interaction | Variant
with no effect | MSSIKHLVYAVIRFLREQSQMDTYTSDEQESLEVAIQCLETVFKISPEDTHLAVSQPLTEMFTSSFCKNDVLPLSNSVPEDVGKADQLKDEGNNHMKEENYAAAVDCYTQAIELDPNNAVYYCNRAAAQSKLGHYTDAIKDCEKAIAIDSKYSKAYGRMGLALTALNKFEEAVTSYQKALDLDPENDSYKSNLKIAEQKLREVSSPTGTGLSFDMASLINNPAFISMAASLMQNPQVQQLMSGMMTNAIGGPAAGVGGLTDLSSLIQAGQQFAQQIQQQNPELIEQLRNHIWSRSFSSSAEEHS [R292W]

Variants of: B2
Settings: with il6rb_human IL6ST

effect of a mutation on the interaction | Variant
disrupting interaction strength | MSSIKHLVYAVIRFLREQSQMDTYTSDEQESLEVAIQCLETVFKISPEDTHLAVSQPLTEMFTSSFCKNDVLPLSNSVPEDVGKADQLKDEGNNHMKEENYAAAVDCYTQAIELDPNNAVYYCNRAAAQSKLGHYTDAIKDCEKAIAIDSKYSKAYGRMGLALTALNKFEEAVTSYQKALDLDPENDSYKSNLKIAEQKLREVSSPTGTGLSFDMASLINNPAFISMAASLMQNPQVQQLMSGMMTNAIGGPAAGVGGLTDLSSLIQAGQQFAQQIQQQNPELIEQLRNHIWSRSFSSSAEEHS [R292W]

Variants of: B3
Settings: with FAM161A

effect of a mutation on the interaction | Variant
with no effect | MSSDEEKYSLPVVQNDSSRGSSVSSNLQEEYEELLHYAIVTPNIEPCASQSSHPKGELVPDVRISTIHDILHSQGNNSEVRETAIEVGKGCDFHISSHSKTDESSPVLSPRKPSHPVMDFFSSHLLADSSSPATNSSHTDAHEILVSDFLVSDENLQKMENVLDLWSSGLKTNIISELSKWRLNFIDWHRMEMRKEKEKHAAHLKQLCNQINELKELQKTFEISIGRKDEVISSLSHAIGKQKEKIELMRTFFHWRIGHVRARQDVYEGKLADQYYQRTLLKKVWKVWRSVVQKQWKDVVERACQARAEEVCIQISNDYEAKVAMLSGALENAKAEIQRMQHEKEHFEDSMKKAFMRGVCALNLEAMTIFQNRNDAGIDSTNNKKEEYGPGVQGKEHSAHLDPSAPPMPLPVTSPLLPSPPAAVGGASATAVPSAASMTSTRAASASSVHVPVSALGAGSAATAASEETYVPRVVTSAQQKAGRTITARITGRCDFASKNRISSSLAIMGVSPPMSSVVVEKHHPVTVQTIPQATAAKYPRTIHPESSTSASRSLGTRSAHTQSLTSVHSIKVVD [M469T]

Variants of: B4
Settings: with crx_human CRX

effect of a mutation on the interaction | Variant
with no effect | MPAAAVQEAVGVCSYGMQLSWDINDPQMPQELALFDQFREWPDGYVRFIYSSDEKKAQRHLSGWAMRNTNNHNGHILKKSCLGVVVCTQACTLPDGSRLQLRPAICDKARLKQQKKACPNCHSALELIPCRGHSGYPVTNFWRLDGNAIFFQAKGVHDHPRPESKSETEARRSAIKRQMASFYQPQKKRIRESEAEENQDSSGHFSNIPPLENPEDFDIVTETSFPIPGQPCPSFPKSDVYKATCDLATFQGDKMPPFQKYSSPRIYLPRPPCSYELANPGYTNSSPYPTLYKDSTSIPNDTDWVHLNTLQCNVNSYSSYERSFDFTNKQHGWKPALGKPSLVERTNHEQFQAMATRPYYNPELPCRYLTTPPPGAPALQTVITTTTKVSYQAYQPPAMKYSDSVREVKSLSSCNYAPEDTGMSVYPEPWGPPVTVTRAASPSGPPPMKIAGDCRAIRPTVAIPHEPVSSRTDEAETWDVCLSGLGSAVSYSDRVGPFFTYNNEDF [G349E]

Variants of: B4
Settings: with rbpms_human RBPMS

effect of a mutation on the interaction | Variant
with no effect | MPAAAVQEAVGVCSYGMQLSWDINDPQMPQELALFDQFREWPDGYVRFIYSSDEKKAQRHLSGWAMRNTNNHNGHILKKSCLGVVVCTQACTLPDGSRLQLRPAICDKARLKQQKKACPNCHSALELIPCRGHSGYPVTNFWRLDGNAIFFQAKGVHDHPRPESKSETEARRSAIKRQMASFYQPQKKRIRESEAEENQDSSGHFSNIPPLENPEDFDIVTETSFPIPGQPCPSFPKSDVYKATCDLATFQGDKMPPFQKYSSPRIYLPRPPCSYELANPGYTNSSPYPTLYKDSTSIPNDTDWVHLNTLQCNVNSYSSYERSFDFTNKQHGWKPALGKPSLVERTNHEQFQAMATRPYYNPELPCRYLTTPPPGAPALQTVITTTTKVSYQAYQPPAMKYSDSVREVKSLSSCNYAPEDTGMSVYPEPWGPPVTVTRAASPSGPPPMKIAGDCRAIRPTVAIPHEPVSSRTDEAETWDVCLSGLGSAVSYSDRVGPFFTYNNEDF [G349E]

Variants of: B5
Settings: with hsfy1_human HSFY1, Q96LI6

effect of a mutation on the interaction | Variant
with no effect | MPAAAVQEAVGVCSYGMQLSWDINDPQMPQELALFDQFREWPDGYVRFIYSSDEKKAQRHLSGWAMRNTNNHNGHILKKSCLGVVVCTQACTLPDGSRLQLRPAICDKARLKQQKKACPNCHSALELIPCRGHSGYPVTNFWRLDGNAIFFQAKGVHDHPRPESKSETEARRSAIKRQMASFYQPQKKRIRESEAEENQDSSGHFSNIPPLENPEDFDIVTETSFPIPGQPCPSFPKSDVYKATCDLATFQGDKMPPFQKYSSPRIYLPRPPCSYELANPGYTNSSPYPTLYKDSTSIPNDTDWVHLNTLQCNVNSYSSYERSFDFTNKQHGWKPALGKPSLVERTNHEQFQAMATRPYYNPELPCRYLTTPPPGAPALQTVITTTTKVSYQAYQPPAMKYSDSVREVKSLSSCNYAPEDTGMSVYPEPWGPPVTVTRAASPSGPPPMKIAGDCRAIRPTVAIPHEPVSSRTDEAETWDVCLSGLGSAVSYSDRVGPFFTYNNEDF [G349E]
